Measurements reported in patent publication US20130108613A1.

Biological target: monomeric synthetic human Aβ1-42 peptide (human)
Assay: cell-based or functional assay

Substance: recombinant NIa (nuclear inclusion a) protease of Turnip mosaic virus (TuMV), purified from E. coli (from UniProt P89509 2117-2359) (enzyme)
- reduction of monomeric Aβ level, densitometry of Western blot (6E10), 3 hrs at 25 °C, NIa pre-incubated with the cysteine protease inhibitor NEM: 33%
